Results: a protein production outcome set (Wang et al. 2014)

Assay: label from the status in PepcDB records
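Further: failed if final PepcDB status was selected cloned or expressed and not failed if soluble or beyond.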

With “MEEPRRLGGRYELGPVLGRGGMAEVYHAHDTRLGRQVAVKTLRADLARDPSFQARFRREAQSAASLNHPAIVAVYDTGEDYIDNVSIPYIVMEYVDGSTLRELLHSGRKLLPERTLEMTIGILQALEYSHRAGIVHRDIKPANVMLTRNGQVKVMDFGIARAMGDSGMTMTQTAAVIGTAQYLSPEQAKGEQVDARSDLYSTGCLLYELLTVRPPFVGDSPVAVAYQHVREEPQAPSVFDPEITPEMDAIVLKALVKDPDYRYQSADEMRVDIEACLDGQPVGATAAMGAMAAGGYGAYPDDQPTTALRSDGGGGATTMLPPMNPDDGGYGYDERPDRRRQQPRKKNTSTIFLVLAGVLVLVGAILIGKYAFSGDGGPGNDKVPVPAFIGLSKADAQQQADNIDLVLTFKQQECEDQPKGNICAQDPKQGTDVDKESTVNLVVSTGAPKVAVPNVIDKNIDEAKKQLEDKGFEVETKQTESSQDEGTILSQNPDPGKELEKGSTVTLEVAKAEEKATVPDVVGRTCDEAKAQVESGGDLTAVCTDQPTNDPNQVGKVISTTPQSSTQVDPGSKVTIVVGKAVEKTKVPEVRGKTLAEARQILQQSGFTNVQVAQGSPGDDNAKVFASNPQPGSEVDDPAATPITLMTVPGDGGNGNGGNGNGGAIAGLPGFGD” as the sequence, how does the protein production read?
Its protein production is “failed”.

For “MARAKNVLWIMCDQLRYDYLGCTGHPTLKTPNIDAMAKRGVLFSKAYVQSPICGPSRMSFYTGRYMRSHGSHWNGWPLRVGEPTLGDHLKKIGVRNVLVGKTHMAPDLEGMKALGIPPESMIGVHVAECGFEPYERDDGLHPTGRPRPKYDEYLRKQGFEATNPWEHWANSGAAEDGSLQNGWLLVHADKAARVPEEHSETPYMTRRAMDFISEAETDGKPWCLHLSYIKPHWPYIAPEPYASMYSTDDMIPVIRSERERQNPHPVFGAYMDMRYSRNMARDDAREKVIPTYMGLITQIDDQMGALMKFLEERGLLDTTMIVFTSDHGDYLGDHWMGEKDLFHEQSAKIPLIIIDPSREADATRGTRSDALVEGIDLAPTFVDYFGGKVPGHILEGRSLLPLLRGPTPPDWRKVAFSEYDYAMQDVRLKLNQPIERCRLFMVFDGRWKYIHASGFRPMLYDLETDPEEFLDRGDDPDCAGIIARLQAELFDWALHPNDHITTPREKIAAYADNQLQVKGGVLIGIWDEAELAAIKDGIAQRAKL”, which protein production is on record?
The protein production was “failed”.

For “MADQLIEEVKQLIIDALRIEGMTPAEIDTDAPLFGEGLGLDSIDALQLVVAMEKQYGVVVPDAATGTKVFQSVRTVADFVAENRKLEHHHHHH”, which protein production is on record?
The protein production was “failed”.

For “MALMTMVQALNRALDEEMAKDPRVVVLGEDVGKRGGVFLVTEGLLQKYGPDRVMDTPLSEAAIVGAALGMAAHGLRPVAEIQFADYIFPGFDQLVSQVAKLRYRSGGQFTAPLVVRMPSGGGVRGGHHHSQSPEAHFVHTAGLKVVAVSTPYDAKGLLKAAIRDEDPVVFLEPKRLYRSVKEEVPEEDYTLPIGKAALRREGKDLTLIGYGTVMPEVLQAAAELAKAGVSAEVLDLRTLMPWDYEAVMNSVAKTGRVVLVSDAPRHASFVSEVAATIAEDLLDMLLAPPIRVTGFDTPYPYAQDKLYLPTVTRILNAAKRALDY”, which protein production is on record?
The protein production was “not failed”.

With “NTRLRRTKEVNEILGIDPVDKNLLVNQFVKWDPKEDKHIEVSMPKKLEKMADFLGVSVQEVYDEMLSRKRYLELMLKRGIRNYKEVTRYIHAYYRNPELAMTKME” as the sequence, how does the protein production read?
Its protein production is “failed”.

For “MNTSEHEREHDHVIEVTDLRRVYGGDFEAVRGITFSVERGELFALLGTNGAGKTSTVELLEGLAAPSGGRVRVLGHDPYEERAAVRPRTGVMLQEGGFPSELTVAETVRMWAGCTSGARPVGEALSLVGLERRPDVRVKQLSGGERRRLDLALALLGRPEVLFLDEPTTGLDAEGRQETWELVRELRDGGTTVLLTTHYLEEAEGLADRLAILHEGRIATAGTPAEVTAAQPSRISFDLPDGYFLGDLPPLADLGVSTHETTGRTVRLRTHELQRTATALLLWAQRAQVELRGLDVRSASLEEAFLRIAREAAGDRPGRPGRTDVSGTTASGKEAVALEHHHHHH”, which protein production is on record?
Its protein production is “not failed”.

Which protein production does the source give for “MGTVHARSLDPLPMNGPDFGSPDDADLVEVEPQKKQEILENKDVVVQRVHFEGLGRTKDDLVAHEIGQVFKAKNLIEVMRKSHEAREKLLRLGVFRNVEVLIDTCEGEDAVPNGLDVTFEVTELRRVTGSYNTMVGNNEGSMVLGLKLPNLFGRAEKMTFQFSYGTKETSYGLSFFKPQVGNFERNFSVNLYKVTGQFPWSSLRETDRGVSAEINFPIWKTSHTLKWEGVWRELGCLARTASFTIREESGHTLKSSLSHSMVIDSRNASILPKSGALLKINQELAGYTGGDVSFLKEDFELQLNRQLTWDSVLSTSLWGGMLVPIGDRPSSIADRFYLGGPTSVRGFSMYSIGPQSEGDYLGGEAYWAGGVHLYTPLPFRPGRGGFGDLFRTHFFLNAGNLCNLNYGEGPGAHLRRLAECIRWSYGAGLVLRLGNIARLELNYCIPMGVQSGDRICDGVQFGAGIRFL” here?
The protein production was “failed”.

Which protein production does the source give for “QVPILHRDADFLLRALQPDDFVRTSRYENANREHLAPWEPLRDPGYFSVDNARARTLLQVASMDEGEALLLLLLDPDDGEVLGRCSYTNIVRGVFQACHLGFSLAAAAQGRGLMARALRVANRYCFEQLGLHRIMASHLPRNARSERLLESLGFEKEGYARAYLKIAGVWEDHVLRALVDAPR” here?
The protein production was “not failed”.

Which protein production does the source give for “MLKLNLKKSFQKDFDKLLLNGFDDSVLNEVILTLRKKEPLDPQFQDHALKGKWKPFRECHIKPDVLLVYLVKDDELILLRLGSHSELF” here?
Its protein production is “failed”.

For “MGSIDRYIFRTTLVSFAVVMGSLTGVIWITQALRGIDLMTSQGQTIITFLGLTGLAVPVLVLVIAPIALMIAVAHTLNRLATDSEIIVMNAAGLSPIRLFRPFFYATMVVAALVIIIGAYIAPDGLRRIARWDSEITADVLANVLQPGRFAQLEQGLTIRVRERQPGGLLVGVFIDDARAPNERVSIIADHGTVVKNDKGSFLVLEDGHLERFQTGKQEPALVAFSRYAFDMSKFSRARDVAYGIRERYLWELLWPAENDPLLARLPTEFRSEMHDRLLAPIYPFFFAAVAFAFLGLARTTRQSRNFSMAGAVLVAFVVRLAGFALSVIANKTPYVAGLQYLLLFVATGTCLWLINRNVVIEPPARVTEALNAFNASIARLIRRPVPA”, which protein production is on record?
The protein production was “failed”.

For “MTLETISSLLPMSAAGLAAVVSALAALGLGLGLWCARHRLRLLTAALEASGCGLITIEGGTRVFQANRQAARLLGRPEGLARDTQARKLFGGTLTAAVQGPGDGQPVRGTAHRPDHGWFPATLQSLGPCGGFARQRRLWLLRDLSDAQELERLRETEERFNASQRFGRIGVWDWNTETNEVFWSEEVFPMFGFTPAEITPTYDLFIAMVHPDDFVALTDSERACLSGTTLHDQEYRVIWRDGSVHWIRETADVLRESDGTPRRMVGVIREVTEEKEAQRQALRIAMLDPLTGLPNRATFLERLEADLGQVDETGVAVPLALAFIDLDDFKPINDTYGHLMGDRVLMTIAKRLSEAVRPQDMVARVGGDEFVALLRGCRDGARARTVAARLLDAVTAPVSIDTVIHRVRASIGISLYPSLVSTGDDLIATADQAMYVAKRAGGDPIRLHGE”, which protein production is on record?
Its protein production is “failed”.

With “MAEPLQPDPGAAEDAAAQAVETPGWKAPEDAGPQPGSYEIRHYGPAKWVSTSVESMDWDSAIQTGFTKLNSYIQGKNEKEMKIKMTAPVTSYVEPGSGPFSESTITISLYIPSEQQFDPPRPLESDVFIEDRAEMTVFVRSFDGFSSAQKNQEQLLTLASILREDGKVFDEKVYYTAGYNSPVKLLNRNNEVWLIQKNEPTKENE” as the sequence, how does the protein production read?
The protein production was “failed”.

Which protein production does the source give for “MPTIEDRYARLDAARWLAALAVVLLHSAAQTVSDPAAYGSHAWLAANLYDSAAHWCVPVFVMVSGALLLDPDQPHDARRFYSRRMARVCAPLLFWTLFYLAWRTALDWWDDGRLDFSFWPRKVAEGAPYYHLWYLYMIVGLYLFAPLVRLLYARSQPRARALWVVGILGVAVLDALYRRALGGGNGLFLTWFLPYLGYFVAGRLIFDGELRMPRPGLVLAASVAATAWGVSALSDSRALDLYFYDYFSVTVPLMSLAAFQLIVGSPRLPALPALPALAPLTFGIYLIHPLFLDLAHRIGAARAWRPDAWGVPAITAAVFALSALASWMLRRHRLTRRLV” here?
Its protein production is “failed”.

Which protein production does the source give for “VTLSSGMQALLDDKFVYLAVNQAYAEKLNLTIDQVIGKHPRDIYSKGYFESELKIYSERCLAGEIIKLEKWMRSSSGQAWFIDIEMSPYYQNDGNIYGVMVNARDIT” here?
The protein production was “failed”.
